# B1: AptaMIP-1 oligo (ssDNA)
# DNA: ATCTACGAATTCATCAGGGCTAAAGAGTGCAGAGTTACTTAG
# modifications: six carboxy-dT (ester or amide, polymerizable), throughout; embedded in imprinted polymer nanoparticle
# B2: AptaMIP-3 oligo (ssDNA)
# DNA: B1 DNA
# modifications: three carboxy-dT, both ends and centre; embedded in imprinted polymer nanoparticle
# B3: AptaMIP-4 oligo (ssDNA)
# DNA: B1 DNA
# modifications: three carboxy-dT near centre (9 bases free at 3', 14 at 5'); embedded in imprinted polymer nanoparticle
# What was measured:
# [1] = target: trypsin (UniProt P00760); experiment: SPR; conditions: embedded in imprinted polymer nanoparticle, SPR: PBST (10 mM phosphate buffered saline, pH 7.4, 0.01% Tween 20), 25 °C, nanoparticles immobilized on carboxymethyl dextran Au chips, protein 4-64 nM, n = 3
# Chain of trypsin (P00760 24-246): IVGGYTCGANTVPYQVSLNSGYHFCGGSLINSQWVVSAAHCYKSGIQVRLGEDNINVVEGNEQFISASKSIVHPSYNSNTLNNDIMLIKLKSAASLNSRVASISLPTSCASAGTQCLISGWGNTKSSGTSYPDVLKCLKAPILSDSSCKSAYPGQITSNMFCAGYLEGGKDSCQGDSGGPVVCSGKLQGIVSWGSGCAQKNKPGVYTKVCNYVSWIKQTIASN
# [2] = target: lysozyme (UniProt P00698 19-147); experiment: SPR; lysozyme-imprinted polymer hybrid; SPR: PBST (10 mM phosphate buffered saline, pH 7.4, 0.01% Tween 20), 25 °C; nanoparticles immobilized on carboxymethyl dextran Au chips, protein 4-64 nM; n = 3; conditions: protein: commercial
# Chain of lysozyme (P00698 19-147): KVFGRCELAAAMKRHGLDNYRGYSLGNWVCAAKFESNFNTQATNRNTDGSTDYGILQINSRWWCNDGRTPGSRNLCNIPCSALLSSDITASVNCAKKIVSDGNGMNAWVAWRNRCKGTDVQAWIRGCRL
molecule,measurement,setting,value
ATCTACGAATTCATCAGGGCTAAAGAGTGCAGAGTTACTTAG [AptaMIP-1 oligo],Kd,"[1]; six carboxy-dT (ester or amide, polymerizable), throughout",4.68 µM
ATCTACGAATTCATCAGGGCTAAAGAGTGCAGAGTTACTTAG [AptaMIP-2 oligo],Kd,"[1]; four carboxy-dT, evenly spaced, no central linker",2.33 µM
ATCTACGAATTCATCAGGGCTAAAGAGTGCAGAGTTACTTAG [AptaMIP-3 oligo],Kd,"[1]; three carboxy-dT, both ends and centre",9.75 µM
ATCTACGAATTCATCAGGGCTAAAGAGTGCAGAGTTACTTAG [AptaMIP-4 oligo],Kd,"[1]; three carboxy-dT near centre (9 bases free at 3', 14 at 5')",9.87 µM
ATCTACGAATTCATCAGGGCTAAAGAGTGCAGAGTTACTTAG [AptaMIP-5 oligo],Kd,"[1]; two carboxy-dT, one at each end (positions 1 and 6 of Fig. 1)",8.95 µM
ATCTACGAATTCATCAGGGCTAAAGAGTGCAGAGTTACTTAG [AptaMIP-6 oligo],Kd,[1]; one carboxy-dT at 3' end,4.68 µM
ATCTACGAATTCATCAGGGCTAAAGAGTGCAGAGTTACTTAG [AptaMIP-7 oligo],Kd,[1]; one carboxy-dT at 5' end,4.89 µM
ATCTACGAATTCATCAGGGCTAAAGAGTGCAGAGTTACTTAG [AptaMIP-8 oligo],Kd,[1]; one central carboxy-dT,4.17 µM
B1,Kd,[2],0.00128 µM
B2,Kd,[2],0.0012 µM
B3,Kd,[2],0.0427 µM

# — paper PMC11905881, “Incorporation of polymerizable linkers into aptamers for high-affinity nanoscale molecularly imprinted polymer hybrids: analysis of positional selectivity†”
